Laboratory results as given in paper PMC9098913, “In vitro reconstitution of Escherichia coli divisome activation” (Nature Communications, 2022).

Test: Membrane off-binding rate (koff) of FtsA from FRAP
Excerpt: We could also use the data from these bleaching experiments to quantify the membrane-binding kinetics and diffusion of membrane-bound proteins by analysing the change of the fluorescence profile during recovery.
Equimolar concentrations of Cy3- and Cy5-labelled FtsA, supplemented with 20% unlabelled FtsA were used to study FRET and FRAP. Five pre-bleach frames were acquired, followed by acceptor photobleaching of a rectangular ROI with 40% 641 nm laser power and a dwell size of 1 µs/pixel, 75% overlapping lines. The recovery of the signal or the increase in donor intensity were measured with either two frames or one frame per second.
Bleaching the acceptor dye leads to an increase in the donor intensity, which can be used to quantify the Foerster Resonance energy transfer (FRET)[48]. FRET efficiency was quantified with E%=Ipost/Ipost+Ipre⋅100 , where Ipost is the intensity of the […] and Ipre is the […]. […] To extract the contribution of both processes, we adjusted a routine recently published by Gerganova et al.[33]. In short, the code provides the contribution of both modes of recovery by analysing the shape of the fluorescence recovery profile. […] Contribution of diffusion leads to a change of the slope of the outer borders of the bleached region (S4h right). Thus, by measuring the change of the slope of the border recovery, diffusion and simple on/off binding can be distinguished. We developed “FRAPdiff”, a graphical user interface, which uses the original fit routine by David Rutkowski. It can be used directly on.tiff movies with annotated bleach regions as ImageJ ROIs. In addition, we added optional bleach correction, user selectable projection axis (x or y), and optional mirroring of the recovery profiles, if bleaching was not symmetric. The original fit routine for estimating the recovery and diffusion dynamics can be found at https://github.com/davidmrutkowski/1DReflectingDiffusion. FRAPdiff is available at 10.5281/zenodo.6400639[49] under the GPLv3 open-source license.

B1: FtsA R286W (protein)
chain: MIKATDRKLVVGLEIGTAKVAALVGEVLPDGMVNIIGVGSCPSRGMDKGGVNDLESVVKCVQRAIDQAELMADCQISSVYLALSGKHISCQNEIGMVPISEEEVTQEDVENVVHTAKSVRVRDEHRVLHVIPQEYAIDYQEGIKNPVGLSGVRMQAKVHLITCHNDMAKNIVKAVERCGLKVDQLIFAGLASSYSVLTEDERELGVCVVDIGGGTMDIAVYTGGALRHTKVIPYAGNVVTSDIAYAFGTPPSDAEAIKVRHGCALGSIVGKDESVEVPSVGGRPPWSLQRQTLAEVIEPRYTELLNLVNEEILQLQEKLRQQGVKHHLAAGIVLTGGAAQIEGLAACAQRVFHTQVRIGAPLNITGLTDYAQEPYYSTAVGLLHYGKESHLNGEAEVEKRVTASVGSWIKRLNSWLRKEF
modifications: Cy3 or Cy5 at the N-terminus in the labelled form (labelled CLEPTGG peptide conjugated to the 5xGly tag by sortagging); unlabelled protein also used; left off: TwinStrep-SUMO, N-terminal, cleaved | 5x
For B1, the “Off binding rate, mean” value (0.1 µM FtsA + FtsN&Z) was 0.0939 s, the “Off binding rate, mean” value (0.1 µM FtsA + FtsN) was 0.062 s and the “Off binding rate, mean” value (0.1 µM FtsA + FtsZ) was 0.204 s. The Off binding rate (0.1µM FtsA alone, Mean, n=6) was 0.3263, the “Off binding rate, mean” value (0.1 µM FtsA alone) was 0.326 s and the Off binding rate (0.1µM FtsA alone, replicate Exp.1) was 3.18E-01. The Off binding rate (0.1µM FtsA alone, replicate Exp.2) was 1.79E-01, the Off binding rate (0.1µM FtsA alone, replicate Exp.3) was 4.12E-01 and the Off binding rate (0.1µM FtsA alone, replicate Exp.4) was 4.03E-01. It also gave an Off binding rate (0.1µM FtsA alone, replicate Exp.5) of 3.20E-01, an Off binding rate (0.1µM FtsA alone, replicate Exp.6) of 3.25E-01 and an Off binding rate (0.1µM, + FtsN&Z, Mean, n=3) of 0.0939. The Off binding rate (0.1µM, + FtsN&Z, replicate Exp.1) was 1.11E-01, the Off binding rate (0.1µM, + FtsN&Z, replicate Exp.2) was 5.81E-02 and the Off binding rate (0.1µM, + FtsN&Z, replicate Exp.3) was 1.13E-01. For the same molecule, the Off binding rate (0.1µM, + FtsN, Mean, n=3) was 0.0620, the Off binding rate (0.1µM, + FtsN, replicate Exp.1) was 5.84E-02 and the Off binding rate (0.1µM, + FtsN, replicate Exp.2) was 3.36E-02. It also gave an Off binding rate (0.1µM, + FtsN, replicate Exp.3) of 9.39E-02, an Off binding rate (0.1µM, + FtsZ, Mean, n=4) of 0.2040 and an Off binding rate (0.1µM, + FtsZ, replicate Exp.1) of 1.08E-01. It also gave an Off binding rate (0.1µM, + FtsZ, replicate Exp.2) of 3.38E-01, an Off binding rate (0.1µM, + FtsZ, replicate Exp.3) of 3.22E-01 and an Off binding rate (0.1µM, + FtsZ, replicate Exp.4) of 4.74E-02. For the same molecule, the “Off binding rate, mean” value (0.2 µM FtsA + FtsN&Z) was 0.099 s, the “Off binding rate, mean” value (0.2 µM FtsA + FtsN) was 0.171 s and the “Off binding rate, mean” value (0.2 µM FtsA + FtsZ) was 0.227 s. For the same molecule, the Off binding rate (0.2µM FtsA alone, Mean, n=6) was 0.2513, the “Off binding rate, mean” value (0.2 µM FtsA alone) was 0.251 s and the Off binding rate (0.2µM FtsA alone, replicate Exp.1) was 2.65E-01. It also gave an Off binding rate (0.2µM FtsA alone, replicate Exp.2) of 3.55E-01, an Off binding rate (0.2µM FtsA alone, replicate Exp.3) of 3.00E-01 and an Off binding rate (0.2µM FtsA alone, replicate Exp.4) of 1.69E-01. It also gave an Off binding rate (0.2µM FtsA alone, replicate Exp.5) of 2.80E-01, an Off binding rate (0.2µM FtsA alone, replicate Exp.6) of 1.38E-01 and an Off binding rate (0.2µM, + FtsN&Z, Mean, n=6) of 0.0990. For the same molecule, the Off binding rate (0.2µM, + FtsN&Z, replicate Exp.1) was 2.98E-02, the Off binding rate (0.2µM, + FtsN&Z, replicate Exp.2) was 2.05E-01 and the Off binding rate (0.2µM, + FtsN&Z, replicate Exp.3) was 6.45E-02. It also gave an Off binding rate (0.2µM, + FtsN&Z, replicate Exp.4) of 4.84E-02, an Off binding rate (0.2µM, + FtsN&Z, replicate Exp.5) of 1.35E-01 and an Off binding rate (0.2µM, + FtsN&Z, replicate Exp.6) of 1.11E-01. It also gave an Off binding rate (0.2µM, + FtsN, Mean, n=4) of 0.1710, an Off binding rate (0.2µM, + FtsN, replicate Exp.1) of 5.13E-02 and an Off binding rate (0.2µM, + FtsN, replicate Exp.2) of 3.51E-01. It also gave an Off binding rate (0.2µM, + FtsN, replicate Exp.3) of 1.05E-01, an Off binding rate (0.2µM, + FtsN, replicate Exp.4) of 1.76E-01 and an Off binding rate (0.2µM, + FtsZ, Mean, n=6) of 0.2270. It also gave an Off binding rate (0.2µM, + FtsZ, replicate Exp.1) of 2.24E-01, an Off binding rate (0.2µM, + FtsZ, replicate Exp.2) of 4.14E-01 and an Off binding rate (0.2µM, + FtsZ, replicate Exp.3) of 9.28E-02. It also gave an Off binding rate (0.2µM, + FtsZ, replicate Exp.4) of 4.05E-01, an Off binding rate (0.2µM, + FtsZ, replicate Exp.5) of 1.38E-01 and an Off binding rate (0.2µM, + FtsZ, replicate Exp.6) of 8.76E-02. The “Off binding rate, mean” value (0.4 µM FtsA + FtsN&Z) was 0.101 s, the “Off binding rate, mean” value (0.4 µM FtsA + FtsN) was 0.18 s and the “Off binding rate, mean” value (0.4 µM FtsA + FtsZ) was 0.179 s. For the same molecule, the Off binding rate (0.4µM FtsA alone, Mean, n=9) was 0.3738, the “Off binding rate, mean” value (0.4 µM FtsA alone) was 0.374 s and the Off binding rate (0.4µM FtsA alone, replicate Exp.1) was 7.99E-01. The Off binding rate (0.4µM FtsA alone, replicate Exp.2) was 6.65E-01, the Off binding rate (0.4µM FtsA alone, replicate Exp.3) was 6.54E-01 and the Off binding rate (0.4µM FtsA alone, replicate Exp.4) was 2.78E-01. It also gave an Off binding rate (0.4µM FtsA alone, replicate Exp.5) of 1.57E-01, an Off binding rate (0.4µM FtsA alone, replicate Exp.6) of 1.25E-01 and an Off binding rate (0.4µM FtsA alone, replicate Exp.7) of 2.26E-01. The Off binding rate (0.4µM FtsA alone, replicate Exp.8) was 2.05E-01, the Off binding rate (0.4µM FtsA alone, replicate Exp.9) was 2.55E-01 and the “membrane exchange (off-rate)” value (0.4 µM FtsA, p-value 6.73 × 10^−6) was 0.37 ± 0.24 s⁻¹. The Off binding rate (0.4µM, + FtsN&Z, Mean, n=9) was 0.1008, the Off binding rate (0.4µM, + FtsN&Z, replicate Exp.1) was 3.83E-02 and the Off binding rate (0.4µM, + FtsN&Z, replicate Exp.2) was 7.71E-02. It also gave an Off binding rate (0.4µM, + FtsN&Z, replicate Exp.3) of 4.63E-02, an Off binding rate (0.4µM, + FtsN&Z, replicate Exp.4) of 2.42E-01 and an Off binding rate (0.4µM, + FtsN&Z, replicate Exp.5) of 1.75E-01. It also gave an Off binding rate (0.4µM, + FtsN&Z, replicate Exp.6) of 5.12E-02, an Off binding rate (0.4µM, + FtsN&Z, replicate Exp.7) of 5.06E-02 and an Off binding rate (0.4µM, + FtsN&Z, replicate Exp.8) of 1.16E-01. The Off binding rate (0.4µM, + FtsN&Z, replicate Exp.9) was 1.11E-01, the Off binding rate (0.4µM, + FtsN, Mean, n=6) was 0.1799 and the Off binding rate (0.4µM, + FtsN, replicate Exp.1) was 1.51E-01. It also gave an Off binding rate (0.4µM, + FtsN, replicate Exp.2) of 4.77E-02, an Off binding rate (0.4µM, + FtsN, replicate Exp.3) of 2.92E-01 and an Off binding rate (0.4µM, + FtsN, replicate Exp.4) of 2.85E-01.
